Measurements as given in PMC10875768, “Structural basis for antibody recognition of the proximal MUC16 ectodomain” (Journal of Ovarian Research, 2024).
Substitutions are numbered along the chain they refer to. In names and notes the source's numbering stands.

Assays:
[1] = target: T1, MBP-MUC16^ecto (maltose binding protein fused to the 26-residue MUC16 ectodomain segment) (Homo sapiens); assay: pull-down; MBP pull-down on amylose resin; MBP-tagged MUC16-target as bait (~20 µg), scFv as prey at 2-fold molar excess; 50 mM Tris-HCl pH 8.0, 400 mM NaCl, 1 mM EDTA, 1 mM DTT, 4 °C, 3 h; three washes; SDS-PAGE; conditions: both partners purified
T1 construct: linker between MBP and the MUC16 segment; Cloned into pMal-C5X (NEB); Only one of the two PDB entries holds this chain; also called MBP-fused MUC16-target; MBP-tagged MUC16-target (wt); source: E. coli BL21-RIL (DE3), purified (amylose resin, Superdex-75); not shown: MBP, N-terminal, kept
T1 chain: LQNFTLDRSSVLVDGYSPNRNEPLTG

[2] = target: T1, MBP-MUC16^ecto (maltose binding protein …); assay: ITC; ITC200, 23 °C; scFv (12.8 µM) in the cell, MUC16 peptide (144 µM) or MBP-MUC16^ecto (130 µM) in the syringe; 50 mM Tris pH 8.0, 400 mM NaCl (the results say pH 7.4); average of three experiments; conditions: both partners purified
[3] = target: T2, commercially synthesized MUC16^ecto peptide (26 residues) (Homo sapiens); assay: as above; conditions: both partners purified
T2 construct: also called synthesized MUC16-target; the synthesized peptide; source: synthetic peptide (commercially synthesized)
T2 chain: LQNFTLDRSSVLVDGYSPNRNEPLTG

[4] = target: T3, native glycosylated MUC16 expressed on cancer cells (OVCAR3, SKBR3) (human (endogenous in OVCAR3 and SKBR3), UniProt Q8WXI7, glycosylated (native)); assay: immunostaining of cells or tissue; Alexa-conjugated scFv on fixed cells; Alexa-350-WGA as membrane marker; OVCAR3 and SKBR3 (MUC16-expressing), HEK293T/17 and SKOV3 as controls; conditions: one partner purified
T3 construct: MUC16 (mucin 16), as expressed on the surface of OVCAR3 and SKBR3 cells; also called Mucin 16; cellular MUC16; source: endogenous, on OVCAR3 and SKBR3 cells

B1: 4H11-scFv with VH double mutations S53A/D106A (scFv, V domains shown)
VH: EVKLQESGGGFVKPGGSLRVSCAASGFTFSSYAMSWVRLAPEMRLEWVATISAAGGYIFYSDSVQGRFTISRDNAKNSLHLQMGSLRSGDTAMYYCARQGFGNYGAYYAMDYWGQGTTVTVSS
VL: DIELTQSPSSLAVSAGERVTMNCKSSQSLLNSRTRKNQLAWYQQKPGQSPELLIYWASTRQSGVPDRFSGSGSGTDFTLTISSVQAEDVAVYYCQQSYNLLTFGPGTKLEIK
notes: as the VH of m1 (hVH2, E1-S123); linker (GGGGS)5; as the VL of m1 (hVL1, D1-R113 = scFv residues 149-261); Made by QuikChange mutagenesis of m1; also called scFv mutant S53A/D106A; source: ExpiCHO-S, transfected (same lentivector as the wild type)
- binding result [1]: binds

B2: 4H11-scFv (H2L1), VH-linker (GGGGS)5-VL (scFv, V domains shown)
VH: B1 VH with A53S, A106D
VL: B1 VL
notes: humanized 4H11 VH (hVH2 of H2L1), E1-S123; linker (GGGGS)5, residues 124-148 of the scFv; humanized 4H11 VL (hVL1 of H2L1), D1-R113, which are residues 149-261 of the scFv; N-terminal signal peptide in the construct for secretion; also called h4H11-scFv; H2L1 4H11-scFv
- Kd [2]: ~2 nM
- Kd [3]: ~1.4 nM

B3: Alexa-fluorescence conjugated 4H11-scFv (scFv, V domains shown)
VH: B1 VH with A53S, A106D
VL: B1 VL
notes: as the VH of m1 (hVH2, E1-S123); linker (GGGGS)5; as the VL of m1 (hVL1, D1-R113 = scFv residues 149-261); also called Alexa-4H11-scFv; Alexa-labeled scFv; source: purified 4H11-scFv labeled with Alexa Fluor 488 carboxylic acid, further purified by Superdex-75
- binding result [4]: binds

B4: 4H11-scFv with VL double mutations Y246A/N247A (scFv, V domains shown)
VH: B1 VH with A53S, A106D
VL: B1 VL with Y98A, N99A
notes: as the VH of m1 (hVH2, E1-S123); linker (GGGGS)5; as the VL of m1 (hVL1, D1-R113) with the stated changes. numbers count on: the whole scFv (VL begins at D149); Made by QuikChange mutagenesis of m1; also called scFv mutant Y246A/N247A; source: ExpiCHO-S, transfected (same lentivector as the wild type)
- binding result [1]: binds
